T1: podoplanin (PDPN), recombinant PDPN-His-Fc (UniProt Q86YL7 23-131)
T1 sequence: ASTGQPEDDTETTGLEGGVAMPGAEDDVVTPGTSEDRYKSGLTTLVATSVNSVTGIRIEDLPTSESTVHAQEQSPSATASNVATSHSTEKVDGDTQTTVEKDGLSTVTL

B1: A6 (structured_DNA)
DNA: ATCCAGAGTGACGCAGCACACCGAGGGGACTGCTCGGGATTGCGGATGAGGTAGCAAGTGGACACGGTGGCTTAGT
B2: A77 (structured_DNA)
DNA: ATCCAGAGTGACGCAGCATGGGGGGAGAGTGTGGTCTGGCTTGGTGGGGTCTGGGGGCTGGACACGGTGGCTTAGT
B3: A1 (structured_DNA)
DNA: ATCCAGAGTGACGCAGCATCACTAGTGCGCCAGGGGGACTGCTCGGGATTGCGGATACTGGACACGGTGGCTTAGT
B4: A289 (structured_DNA)
DNA: ATCCAGAGTGACGCAGCACGGGTTTGGCGCCGGGCCTGGCGGGTGTAGCGTTTTTGGGTGGACACGGTGGCTTAGT
B5: A5 (structured_DNA)
DNA: ATCCAGAGTGACGCAGCATGCCAAAGGGTCTGCTCGGGATTGCGGAGAGGGCTTGGGGTGGACACGGTGGCTTAGT
B6: A1498 (structured_DNA)
DNA: ATCCAGAGTGACGCAGCATGCAGGGTTTGGCTTCGGGCCTGGCGGAGAGAGCGTGAGGTGGACACGGTGGCTTAGT

Molecular target: T1, podoplanin (PDPN), recombinant …
Test: BLI; BLI and dot blot: binding buffer B, 1x PBS, 5 mM MgCl2, 0.1% BSA, 0.01% yeast tRNA (BLI baseline in buffer A: 1x PBS, 5 mM MgCl2, 2 mM CaCl2, 1 mg/mL BSA, 0.1 mg/mL salmon sperm DNA); temperature and pH not given; flow cytometry at 4 C
Settings: protein: commercial, tags: His
[1] = chain copies: 2, label: biotin, parallel G-quadruplex (CD), stem-loop predicted
[2] = chain copies: 2, label: biotin, antiparallel G-quadruplex or B-DNA (CD)

Binder | Kd [1] [nM] | Kd [2] [nM] | other results
B1 | 0.2 |  | 
B2 | 1.7 |  | 
B3 |  |  | Kd (chain copies: 2, label: biotin (BLI, dot blot, Western blot), FAM (flow cytometry), parallel G-quadruplex (CD), stem-loop predicted): 1.3 nM
B4 |  | 0.5 | 
B5 | 0.2 |  | 
B6 |  | 0.4 | 

— PMC11506057, “Identification of Podoplanin Aptamers by SELEX for Protein Detection and Inhibition of Platelet Aggregation Stimulated by C-Type Lectin-like Receptor 2”
